From the nanobody polyreactivity screen of Harvey et al. (2022)

Assay: yeast display, Sf9 membrane polyspecificity reagent, FACS + sequencing; frameworks hold sequencing errors
Summary of the method: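 Genes from sorted yeast were amplified by colony PCR, read by MiSeq 2 × 250 sequencing and filtered on CDR length. These cells carried a synthetic nanobody library in Saccharomyces cerevisiae BJ5465 and were sorted by FACS into low and high (top ~1%) gates on anti-HA and streptavidin fluorescence. Polyreactivity is labelled according to the gate of origin.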

Sequence	polyreactivity (PSR sort gate)
QVQLVESGGGLVQAGGSLRLSCAASGSIFADYAMGWYRQAPGKERELVAVISRRGGTTYYADSVKGRFTISRDNAKNTVYLQMNSLKPEDTAVYYCAARRSFNEYDYWGQGTQVTVSS	high polyreactivity
QVQLVESGGGLVQARGSLRLSCAASGAIFVVYTMGWYRQAPGKERELVAAITQNGGSSTYYADSVKGSFTISRDNAKNTFYLQMNSLKPDDTAVYYCNVDSFTTTFDYWGQGTQVTVSS	low polyreactivity
QVQLVESGGGLVQAGGSLRLSCAASGLTFTKYAMGWYRQAPGKERELVAAINRRGGSTYYADSVKGRFTISRDNAKNTVYLQMNSLKPEDTAVYYCAKRKSVRSTPSYEYWGQGTQVTVSS	high polyreactivity
QVQLVESGGGLVQAGGSLRLSCAASGSTFPHYAMGWYRQAPGKERELVAAISWSGSSTYYADSVKGRFTISRDNAKNTVYLQMNSLKPEDTAVYYCNKLPRRAPQFTYDYWGQGTQVTVSS	high polyreactivity
QVQLVESGGGLVQAGGSLRLSSAASGRTFDAYAMGWNRQAPGKERELVAAISGRGGSTTYADSVKGRFTISRDNAKNTVYLQMNSLKPEDTAVYYCAARYPPRFGVVRGYSRSGYWGQGTQVTVSS	high polyreactivity
QVQLVESGAALVQAAGSLRLSCAASGSIFTPYAMGWYRQAPGKERELVAGIRSSGGRTYYADSVKGRFTISRDNAKNTVYLQMNSLKPEDTAVSYCAADQDWYGFVIGFDYWGQGTQVTVSS	low polyreactivity
QVQLVESAGGLVQAGGSLSLSCAASGRTFVIYAMGWYRKAPGKERELVAGIDSGTSTYADSVKGRFTISRDNAKNTVYLQMNSLKPEDTAVYYCAADFAPDGAGWYIPGDYDSWGQGTQVTVSS	low polyreactivity
QVQLVESGGGLVQAGGSLRLSCAASGSIFYRYAMGWYRQAPGKERELVAAISRSGGRTYYADSVKGRFTISRDNAKNTVYLQMNSLKPEDTAVYYCAAESTVGTDLGGDSWGQGTQVTVSS	high polyreactivity
QVQLVESGGGLVQAGGSLRLSCAASGLTFDNYAMGWYRQAPGKERELVAAISTSSGRTYYADSVKGRFTISRDNAKNTVYLQMNSLKPEDTAVYYCAAEVAFIYSYYEVYKYEYWGQGTQVTVSS	high polyreactivity
QVQLVESGGGLVQAGGSLRLSCAASGITFGYYAMGWYRQAPGKERELVASITSGGSTNYADSVKGRFTISRDNAKNTVYLQMNSLKPEDTAVYYCAKRYYRQYDYWGQGTQVTVSS	low polyreactivity
QVQLVESGGGLVQAGGSLPLSCAASGSIFYSNAMGWYRQAPGKERELVARISRSGGSTYYADSVKGRFTISRDNAKNTVYLQMNSLKPEDTAVYYCAKTFTRSWGLGGSWGQGTQVTVSS	low polyreactivity
QVQLVESGGGLVQAGGSLRLSCAASGLTFSIYAMGWYREAPGKERELVAAITGRGGRTYYADSVKGRFTISRDNAKNTVYLQMHSLKPEDTAVYYCAARYRGTDFDYWGQGTQVTVSS	high polyreactivity
AVQLEESRGGLVQAGGSLRLSCAASGFIFTVNAMGWSRQAPGKERELVAAITQSGGNTSYADSVKGRFTFSRDNAKNTFYLQMNSLKPEDTAVYYCAADDVDVEHPASWDDYDSWGQGTQVTVSS	low polyreactivity
QVQLVESGGGLVQAGGSLRLRCAASGRIFGRYAMGWYRQAPGKERELVASISRGGSTNYADSVKGRFTISLDNAKNTVYLQMNSLKPEDTAVFYFAKSGGVGGDDRVGSWGQGTQVTVSS	low polyreactivity
QVQLVESGGGLVQAGGSLRLSCAASGRIFTHNAMGWYRQAPGKERELVAAISYSGVSTYYADSVKGRFTISRDNAKNTVYLQMNSLKPEDTAVYYCNALIQSWRARIRRYYWGQGTQVTVSS	low polyreactivity
QVQLVESGGGLVQAGGSLRLSCAASGSIFSLYDMGWYRQAPGKERELVASITWSGGSTDYADSVKGRFTISRDNAKNTVYLQMNSLKPEDTAVYYCAAYSYTSIFDYWGQGTQVTVSS	low polyreactivity
QVQLVESGGGIVQAGGSLRLSCAASGRTFQLYAMGWYRQAPGKERELVAAITRGGSTKYADSVKGRFTISRDNAKNTVYLQMNSLKPEDTAVDYCAAKFSSYWSRFGYWGQGTQVTVSS	high polyreactivity
QVQLVESGGGLVQAGGSLRLSCAASGSIFPYYAMGWYRQAPGKVRELVATISSGGSTKYADSVKGRFTISRDNAKNTVYLQMNSLKPEDTAVYYCAADWYLGPYSWYTEKYNYCGQGTQVTVSS	high polyreactivity
QVQLVESGGGLVQAGGSLRLSCAASGFTFYHYAMGWYRPAPGKERELVAAISKSGGRTYYADSVKGRFTISRDNAMYTVYLQMNSLKPEDTAVYYFNAAYRTTSYENDYWGQGTQVTVSS	low polyreactivity
QVQLVESGGGLVQAGGSLRLSCAASGRIIGFNAMGWYIQAPAKERELVASIRTTGGSTRYADSVKWRFTISRDNATNTVYLQMNSLKPEDTAVYYCADRWCKTLWQYNYWGQGTQVTVSS	high polyreactivity
QVQLVESGGGLVQARGSLRLSCAASGSIFFPYAMGWYRQAPGKERELVAAIRYSAGSTYYADSVKGRFTISRDNAKNTVYLQMNSLKPEDTAVYYCNAGSSCWVSRIGYDYWGEGTQVTVSS	high polyreactivity
QVQLVESGGGLVQAGGSLRLSCAASGYIFRGYVMGWYRQAPGKERELVAAISYGDGGTYYADSVKGRFTLSRDNAKNTVYLQMNSLKPEDTAVYYCAAPPYSFWGDYYSAGYYYWGQGTQVTVSS	low polyreactivity

Sequence	polyreactivity (PSR sort gate)
QVQLVESGGGLVQAGGSLRLSCAASGLTFKINAMGWYRQAPGKERELVAAIRSSGGRTYADSVKGRFTISRDNAKNTVYLQMNSLKPEDTAVYYCNKSPGYRSGRAVLYDYWGQGTQVTVSS	low polyreactivity
QVQHVESGGGLVQAGGSLRLSCAASGRIFSFYVMGWYRQAPGKERELVAVIRKNGGSTYYADSVKGRFTISRDNAKNTVYLQMNSLKPEDTAVYYCTARSVPRYGYWGLGTQVTVSS	high polyreactivity
QVKLVESGVGLVQAGGSLRLSCAASGSTLTRNAMGWYRQAPGKERELVAAITQRGGSTYYADSVKGRFTLSRDNAKNTVYLQMNSLKPEDTAVYYCNVRAFHKQYSEYDYWGQGTQVTVSS	high polyreactivity
KVQVVESGGGFVQAGGSLRLSCAASGSTFVINAMGCYRQAPGKERELVAAITWGGGRTYYADSVKGRFTISRDNEKNTVYFQMNSLKPEDTAVYYCAAVGSGWKGDYWGQGTQVNVSS	low polyreactivity
QVQLVESGGGLVQAGGSLRLSCAASGRIFYPYSMGWYRQAPGKERELVAAIRRSGVDTYYADSVKGRFTISRDNAKNTVYLQMNSLKPEDTAVYYCAADPYWFFPHYDSWGQGTQVTVSS	low polyreactivity
QVQLVESGGGLVQAGGSLRLSCAASGSIYPNAMGWNRQAPGKERELVAAIRRSSGSTYADSVKGRFTISRDNAKNTVYLQMNSLKPEDTAVYYCAAEWFAQPVGYDYWGQGTQVTVSS	high polyreactivity
QVQLAESGGCLVQAGGRLRLSCAASGSTFPHYAMGWYRQAPGKERELVAAISVRGGRTYYADSVKGRFTISRDNAKNNDSLQMNSLKPEDTAVYYCNKYYDVTKYGYWGQGTQVTVSS	high polyreactivity
QVQLVESGGGLVQAGGSLRLSCAASGSIISANAMGWYRQAPGKESELVAAITSGDSTKYADSVKGRFTISRDNAKNTVYLQMNSLKPEDTAVYYCAVDRGVYKNRDGEEYWGQGTQVTVSS	low polyreactivity
QVQLVESGGGLVQAGGSLRLSSAASGSIFRVNAMGWYRQAPGKERELVAAISTSGGNTYYADSVKGRFTISRDNAKNTVYLQMNSLKPEDTAVYYCNAPWSSFNGFTGRYDYWGQGTQVTVSS	low polyreactivity
QVQLVESGGGLVQAGGSLRLSSAASGSIFRYNAMGWYRQAPGKERELFAAISYRGGRTYYADSVKGRFTISRDNAKNTVYLQMNSLKPEDTAVYYCNADSIYSARGWLYGYWGQGTQVTVSS	low polyreactivity
QVQLVESGGGLVQAGGSLRLSCAASGSTFYYNAMGWYRQAPGKEREFVAAINWRGGSTYYADSVKGRFTISRDNAKNTVYLQMNSLTPEDTAVYYCAAEEPSTYYYVRSGYDYHFWEMYSWGQGTQVTVSS	low polyreactivity
QVQLVESGGGLVHAGGSLRLSCAASGRTFVSYAMGWYRQAPGKERELVAAITNAGSTYYADSVKGRFTISRDNAKNTVYLQMNSLKPEDTAVYYCAATYWDYWGYGYDYWGQGTQVTVSS	high polyreactivity
QVQLVESGGGLVQAGGSLRISCAASGRIFGANAMGWYRQAPAKERELVAAITSSGGNTYYADSVKGRFTISRDNAKNTVYLQMNCLKPEDTAVYYWSARSRWVSYNYWGQGTQVTVSS	high polyreactivity
QVQLVESVGGLVQAGGSLRLTCAASGSIFYVYAMGWYRQAPGKERELVANIRDGGITYADSVKGRFTISRDNAKNTVYLQMNSLKPEDTAVYYCARDDTSPGYGDQSSNAAYYYRGQGTQVTVSS	low polyreactivity
QVQLVESGGGLVQAGGSLRLSCAASGSTIVIYTMGWYRQAPGKERELVAAISQSGGRTYYADSVKGRFTISRDNSKNTVYLQMNSLKPEDTAVYYCAATWGKHYGYWGQGTQVTVSS	high polyreactivity
QVQLVESGGGLVQAGGSLRLSCAASGIIFGRYAMGWYRQAPGKERELVAAISTSGGSTYYADSVKGRFTISRDNAKNTVYLQMNSLKPEDTAVYYCAARHREAQRRYDYWGQGTQVTVSS	high polyreactivity
QVQLVESGGGLVQAGGSLRLSCAASGSTFDFYAMGLYRQAPGKERELVAAITSGGTTNYADSVKGRFTISRDNAKNTVYLQMNSLKPEDTAVYFCNAYYLGWYRVRAVTGYDYCGQGTQVTVSS	low polyreactivity
QVQLVESGGGLVQAGGSLRLSCAASGSTFSIYAMGGDRQAPGKERELVAAITRRSGSTYYADSVKGRFTISRDNAKNTVSLQMNSLKPEDTAVYYCAADTWRTDYTSSYYKNRDSWGQGTQVTVSS	high polyreactivity
QVQLVESGGGLVQAGGSLRLSCAASGSIFQIYAMGWYRQAPGKERELVAAINSGGITKYADSVKGRFTISRDNAKNTVYLQMNSLKPEDTAVYYCAKRYGWPYGRFDYWGQGTQVTVSS	low polyreactivity
QVQLVESGGGLVQAGGSLLLSCAASGSTFYKYAMGWYRQAPGKERELVARNSRGGGSTYYADSVKGRFTISRDNAKNTVYLQMNSLKPEDTAVYYCAAGVRGQNEGYYWGQGTQVTVSS	high polyreactivity
QGQLEDSGGGLVQAGGSLRLSCAASGFSFRSYGMGRYRQAPGKERELVAVISRSGGNTYYAASVKGRFTISRHNAKNTVYLQMHSLKPEDTAVYYCAATLVGTVIRRFDDWGQGTQVTVSS	high polyreactivity
